Residue numbers refer to the chain shown, from its start.
B1: mKate2.7C (other)
chain: MVSELIKENMPMKLYMEGTVNNHHFKCTSEGEGKPYEGTQTMRIKVVEGGPLPFAFDILATSFMYGSRTFIKHPPGIPDFFKQSFPEGFTWERVTTYEDGGVLTATQDTSLQDGCLIYNVKVRGVNFPANGPVMQKKTLGWEASTETMYPADGGLEGACDMALKLVGGGHLICNLETTYRSKKPATNLKMPGVYNVDHRLERIKEADDETYVEQHEVAVARYSTGGAGDGGK
notes: A vector His tag from pQE30 is probably present but not described; It was tested for self-association by FPLC
B2: mKate2.5 (other)
chain: B1 chain with P11H, R68K, K72N, P75Q, V122I, M148L, T186K, H198R, D208N
notes: as for B1
B3: mKate2 protein (other)
chain: MVSELIKENMHMKLYMEGTVNNHHFKCTSEGEGKPYEGTQTMRIKAVEGGPLPFAFDILATSFMYGSKTFINHTQGIPDFFKQSFPEGFTWERVTTYEDGGVLTATQDTSLQDGCLIYNVKIRGVNFPSNGPVMQKKTLGWEASTETLYPADGGLEGRADMALKLVGGGHLICNLKTTYRSKKPAKNLKMPGVYYVDRRLERIKEADKETYVEQHEVAVARYCDLPSKLGHR
notes: Engineered far-red fluorescent protein derived from Entacmaea quadricolor eqFP578; The partner is a second copy of the same protein (self-association / dimerization seen by FPLC)

Assays:
[1] = biological target: the molecule itself; experiment: FPLC gel filtration, Superdex 200 (self-association)
Experimental: Gel filtration chromatography was performed using a Superdex 200 10/300 GL column (Amersham Biosciences), equilibrated with 40 mm Tris-HCl (pH 7.5), 150 mm NaCl buffer at a flow rate of 0.4 ml/min. Apparent molecular masses were calculated by interpolating an elution volume versus log (molecular mass) calibration curve using ferritin (440 kDa), catalase (232 kDa), aldolase (158 kDa), BSA (67 kDa), ovalbumin (43 kDa), chymotrypsinogen A (25 kDa), and ribonuclease A (13.7 kDa). 200 uL of each fluorescent protein at concentration 1 mg/ml were loaded.

[2] = biological target: the molecule itself; experiment: FPLC gel filtration of purified protein (homodimerization)

| Protein | binding result [1] | binding result [2] |
| --- | --- | --- |
| B1 | no binding (tested: >1 mg/ml) | – |
| B2 | no binding (tested: >1 mg/ml) | – |
| B3 | – | binds |

Reference: patent US20120094377A1 (EVROGEN JSC, published 2012)
